The numbers were not newly measured in patent US12509496B2 (Shanghai Minwei Biotechnology Co., LTD, priority 2020, dated 2025), which cites them from elsewhere.

The conditions of the data set: in the blood; cited from earlier work.

As for dulaglutide, the half-life in vivo is 108 to 113 h.
